# B1: Complement factor H (Homo sapiens), P08603-2 (parent)
# chain: MRLLAKIICLMLWAICVAEDCNELPPRRNTEILTGSWSDQTYPEGTQAIYKCRPGYRSLGNVIMVCRKGEWVALNPLRKCQKRPCGHPGDTPFGTFTLTGGNVFEYGVKAVYTCNEGYQLLGEINYRECDTDGWTNDIPICEVVKCLPVTAPENGKIVSSAMEPDREYHFGQAVRFVCNSGYKIEGDEEMHCSDDGFWSKEKPKCVEISCKSPDVINGSPISQKIIYKENERFQYKCNMGYEYSERGDAVCTESGWRPLPSCEEKSCDNPYIPNGDYSPLRIKHRTGDEITYQCRNGFYPATRGNTAKCTSTGWIPAPRCTLKPCDYPDIKHGGLYHENMRRPYFPVAVGKYYSYYCDEHFETPSGSYWDHIHCTQDGWSPAVPCLRKCYFPYLENGYNQNYGRKFVQGKSIDVACHPGYALPKAQTTVTCMENGWSPTPRCIRVSFTL
# partner: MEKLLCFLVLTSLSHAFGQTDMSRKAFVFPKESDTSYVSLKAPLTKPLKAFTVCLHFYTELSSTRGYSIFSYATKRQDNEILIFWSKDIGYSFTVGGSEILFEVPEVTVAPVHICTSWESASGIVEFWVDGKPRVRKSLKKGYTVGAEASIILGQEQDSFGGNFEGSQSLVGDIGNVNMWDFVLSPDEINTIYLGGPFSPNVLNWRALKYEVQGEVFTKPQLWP
# B2: Complement factor H (Homo sapiens), P08603-1 (parent)
# chain: MRLLAKIICLMLWAICVAEDCNELPPRRNTEILTGSWSDQTYPEGTQAIYKCRPGYRSLGNVIMVCRKGEWVALNPLRKCQKRPCGHPGDTPFGTFTLTGGNVFEYGVKAVYTCNEGYQLLGEINYRECDTDGWTNDIPICEVVKCLPVTAPENGKIVSSAMEPDREYHFGQAVRFVCNSGYKIEGDEEMHCSDDGFWSKEKPKCVEISCKSPDVINGSPISQKIIYKENERFQYKCNMGYEYSERGDAVCTESGWRPLPSCEEKSCDNPYIPNGDYSPLRIKHRTGDEITYQCRNGFYPATRGNTAKCTSTGWIPAPRCTLKPCDYPDIKHGGLYHENMRRPYFPVAVGKYYSYYCDEHFETPSGSYWDHIHCTQDGWSPAVPCLRKCYFPYLENGYNQNYGRKFVQGKSIDVACHPGYALPKAQTTVTCMENGWSPTPRCIRVKTCSKSSIDIENGFISESQYTYALKEKAKYQCKLGYVTADGETSGSITCGKDGWSAQPTCIKSCDIPVFMNARTKNDFTWFKLNDTLDYECHDGYESNTGSTTGSIVCGYNGWSDLPICYERECELPKIDVHLVPDRKKDQYKVGEVLKFSCKPGFTIVGPNSVQCYHFGLSPDLPICKEQVQSCGPPPELLNGNVKEKTKEEYGHSEVVEYYCNPRFLMKGPNKIQCVDGEWTTLPVCIVEESTCGDIPELEHGWAQLSSPPYYYGDSVEFNCSESFTMIGHRSITCIHGVWTQLPQCVAIDKLKKCKSSNLIILEEHLKNKKEFDHNSNIRYRCRGKEGWIHTVCINGRWDPEVNCSMAQIQLCPPPPQIPNSHNMTTTLNYRDGEKVSVLCQENYLIQEGEEITCKDGRWQSIPLCVEKIPCSQPPQIEHGTINSSRSSQESYAHGTKLSYTCEGGFRISEENETTCYMGKWSSPPQCEGLPCKSPPEISHGVVAHMSDSYQYGEEVTYKCFEGFGIDGPAIAKCLGEKWSHPPSCIKTDCLSLPSFENAIPMGEKKDVYKAGEQVTYTCATYYKMDGASNVTCINSRWTGRPTCRDTSCVNPPTVQNAYIVSRQMSKYPSGERVRYQCRSPYEMFGDEEVMCLNGNWTEPPQCKDSTGKCGPPPPIDNGDITSFPLSVYAPASSVEYQCQNLYQLEGNKRITCRNGQWSEPPKCLHPCVISREIMENYNIALRWTAKQKLYSRTGESVEFVCKRGYRLSSRSHTLRTTCWDGKLEYPTCAKR
# partner: B1 partner
# Variants of: B1
# Settings: with crp_human CRP
row,Variant,effect of a mutation on the interaction
1,Y402H,decreasing interaction strength

# Variants of: B2
# Settings: with crp_human CRP
row,Variant,effect of a mutation on the interaction
1,Y402H,decreasing interaction strength

# Source: IntAct's records for PubMed 21930971
